This note sets out measurements from US7588931B2, “High arachidonic acid producing strains of Yarrowia lipolytica” (E. I. du Pont de Nemours and Company, priority 2004, dated 2009).

Holding throughout (type): cell-based, Yarrowia lipolytica
Data set [1] has as its system β-glucuronidase (GUS) reporter. Briefly: Comparative analysis of promoters by histochemical analysis of GUS expression. On the procedure:
Comparative studies investigating the promoter activities of the TEF, GPD, GPDIN, GPM, GPAT, FBA, FBAIN and YAT1 promoters were performed, by synthesizing constructs comprising each promoter and the E. coli gene encoding β-glucuronidase (GUS) as a reporter gene (Jefferson, R. A. Nature. 14(342):837-838 (1989)). Then, GUS activity was measured by histochemical and fluorometric assays (Jefferson, R. A. Plant Mol. Biol. Reporter 5:387-405 (1987)) and/or by using Real Time PCR for mRNA quantitation.
Yarrowia lipolytica ATCC #76982 strains containing plasmids pY5-30, pYZGDG, pYZGMG, pDMW212 and pDMW214 were grown from single colonies in 3 mL MM at 30° C. to an OD600˜1.0. Then, 100 μl of cells were collected by centrifugation, resuspended in 100 μl of histochemical staining buffer, and incubated at 30° C. Staining buffer was prepared by dissolving 5 mg of 5-bromo-4-chloro-3-indolyl glucuronide (X-Gluc) in 50 μl dimethyl formamide, followed by the addition of 5 mL 50 mM NaPO4, pH 7.0.
In a separate experiment, Y. lipolytica Y2034 strains containing plasmids pY5-30, pYGPAT-GUS, pYAT-GUS and pDMW214 were grown from single colonies in 5 mL SD media at 30° C. for 24 hrs to an OD600˜8.0. Then, 1 mL of cells were collected by centrifugation. The remaining cultures were centrifuged and washed 2× with HGM, resuspended in 5 mL each of HGM and allowed to grow at 30° C. further. After 24 and 120 hrs, ˜0.25 mL of each culture were centrifuged to collect the cells. Cell samples were resuspended individually in 100 μl of histochemical staining buffer (supra). Zymolase 20T (5 μl of 1 mg/mL; ICN Biomedicals, Costa Mesa, Calif.) was added to each, and the mixture incubated at 30° C. […]

Data set [2] concerns β-glucuronidase (GUS) reporter. Briefly: Relative promoter activity rank from comparative GUS reporter studies (histochemical, fluorometric and/or Real Time PCR). The arrangement: key: a ‘1’ corresponds to the promoter with lowest activity; a ‘7’ corresponds to the promoter with highest activity. The following applies: relative to other promoters. On the procedure: The activity of GPM is about the same as TEF, while the activity of GPD, FBA, FBAIN, FBAINm, GPDIN, GPAT, YAT1 and EXP1 are all greater than TEF (activity is quantified in a relative manner in the column titled “Activity Rank”, wherein a ‘1’ corresponds to the promoter with lowest activity, while a ‘7’ corresponds to the promoter with highest activity). […] GUS activity in each expressed construct was measured by histochemical and/or fluorometric assays (Jefferson, R. A. Plant Mol. Biol. Reporter 5:387-405 (1987)) and/or by use of Real Time PCR.
For orientation: Quantitative PCR measures a nucleic acid by following its amplification.

Data set [3] relates to β-glucuronidase (GUS) reporter. Kind of data set: Comparative analysis of promoters by fluorometric assay of GUS expression. On the procedure:
GUS activity was also assayed by fluorometric determination of the production of 4-methylumbelliferone (4-MU) from the corresponding substrate β-glucuronide (Jefferson, R. A. Plant Mol. Biol. Reporter 5:387-405 (1987)).
Yarrowia lipolytica ATCC #76982 strains containing plasmids pY5-30, PYZGDG, PYZGMG, pDMW212 and pDMW214 were grown from single colonies in 3 mL MM (as described above) at 30° C. to an OD600˜1.0. Then, the 3 mL cultures were each added to a 500 mL flask containing 50 mL MM and grown in a shaking incubator at 30° C. for about 24 hrs. The cells were collected by centrifugation, resuspended in Promega Cell Lysis Buffer and lysed using the BIO 101 Biopulverizer system (Vista, Calif.). After centrifugation, the supernatants were removed and kept on ice.
Similarly, Y. lipolytica strain Y2034 containing plasmids pY5-30, pYAT-GUS, pYGPAT-GUS and pDMW214 constructs, respectively, were grown from single colonies in 10 mL SD medium at 30° C. for 48 hrs to an OD600˜5.0. Two mL of each culture was collected for GUS activity assays, as described below, while 5 mL of each culture was switched into HGM.
Specifically, cells from the 5 mL aliquot were collected by centrifugation, washed once with 5 mL of HGM and resuspended in HGM. The cultures in HGM were then grown in a shaking incubator at 30° C. for 24 hrs. Two mL of each HGM culture were collected for the GUS activity assay, while the remaining culture was allowed to grow for an additional 96 hrs before collecting an additional 2 mL of each culture for the assay.
Each 2 mL culture sample in SD medium was resuspended in 1 mL of 0.5× cell culture lysis reagent (Promega). Resuspended cells were mixed with 0.6 mL of glass beads (0.5 mm diameter) in a 2.0 mL screw cap tube with a rubber O-ring. The cells were then homogenized in a Biospec mini beadbeater (Bartlesville, Okla.) at the highest setting for 90 sec. The homogenization mixtures were centrifuged for 2 min at 14,000 rpm in an Eppendof centrifuge to remove cell debris and beads. The supernatant was used for GUS assay and protein determination.
For each fluorometric assay, 100 μl of extract was added to […] of GUS assay buffer (2 mM 4-methylumbelliferyl-β-D-glucuronide (“MUG”) in extraction buffer) or 200 μl of extract was added to 800 μl of GUS assay buffer. The mixtures were placed at 37° C. Aliquots of 100 μl were taken at 0, 30 and 60 min time points and added to 900 μl of stop buffer (1 M Na2CO3). Each time point was read using a CytoFluor Series 4000 Fluorescence Multi-Well Plate Reader (PerSeptive Biosystems, Framingham, Mass.) set to an excitation wavelength of 360 nm and an emission wavelength of 455 nm. Total protein concentration of each sample was determined using 10 μl of extract and 200 μl of BioRad Bradford reagent or 20 μl of extract and 980 μl of BioRad Bradford reagent (Bradford, M. M. Anal. Biochem. 72:248-254 (1976)). GUS activity was expressed as nmoles of 4-MU per minute per mg of protein.

Entries after “also recorded” stand apart in the source; their conditions may differ.

B1: GPAT: Y. lipolytica glycerol-3-phosphate acyltransferase promoter, SEQ ID NO:164 (nucleic acid, listed as Yarrowia lipolytica)
DNA: CAACTTTTCTTGTCGACCTGAGATACCGAGGTTGCGCAGGGGATCAACTTTTGTGTCTCAGAGGGACCCAAGTGCGTACGGAGAGTACAGTACATACTGTAGCTAACGGTAGCAGGCGAACTACTGGTACATACCTCCCCCGGAATATGTACAGGCATAATGCGTATCTGTGGGACATGTGGTCGTTGCGCCATTATGTAAGCAGCGTGTACTCCTCTGACTGTCCATATGGTTTGCTCCATCTCACCCTCATCGTTTTCATTGTTCACAGGCGGCCACAAAAAAACTGTCTTCTCTCCTTCTCTCTTCGCCTTAGTCTACTCGGACCAGTTTTAGTTTAGCTTGGCGCCACTGGATAAATGAGACCTCAGGCCTTGTGATGAGGAGGTCACTTATGAAGCATGTTAGGAGGTGCTTGTATGGATAGAGAAGCACCCAAAATAATAAGAATAATAATAAAACAGGGGGCGTTGTCATTTCATATCGTGTTTTCACCATCAATACACCTCCAAACAATGCCCTTCATGTGGCCAGCCCCAATATTGTCCTGTAGTTCAACTCTATGCAGCTCGTATCTTATTGAGCAAGTAAAACTCTGTCAGCCGATATTGCCCGACCCGCGACAAGGGTCAACAAGGTGGTGTAAGGCCTTCGCAGAAGTCAAAACTGTGCCAAACAAACATCTAGAGTCTCTTTGGTGTTTCTCGCATATATTTAATCGGCTGTCTTACGTATTTGGCCTCGGTACCGGACTAATTTCGGATCATCCCCAATACGCTTTTTCTTCGCAGCTGTCAACAGTGTCCATGATCTATCCACCTAAATGGGTCATATGAGGCGTATAATTTCGTGGTGCTGATAATAATTCCCATATATTTGACACAAAACTTCCCCCCCTAGACATACATCTCACAATCTCACTTCTTGTGCTTCTGTCACACATCTCCTCCAGCTGACTTCAACTCACACCTCTGCCCCAGTTGGTCTACAGCGGTATAAGGTTTCTCCGCATAGAGGTGCACCACTCCTCCCGATACTTGTTTGTGTGACTTGTGGGTCACGACATATATATCTACACACATTGCGCCACCCTTTGGTTCTTCCAGCACAACAAAAACACGACACGCTAA
modifications: misc_feature: Promoter GPAT
Regarding B1, the “promoter activity by histochemical staining” value in data set [1] (strain Y2034, 24 hr in SD medium, FIG. 5C) is “active; also recorded: much stronger than the TEF promoter”. The “Activity “Rank”” value in data set [2] was 5. In addition, the GUS activity in data set [3] (strain Y2034, 24 hr, HGM) is on record as 2.969 nmoles of 4-MU per minute per mg of protein; in data set [3] (strain Y2034, 48 hr, SD) it was 5.252 nmoles of 4-MU per minute per mg of protein; in data set [3] (strain Y2034, 120 hr HGM), 3.050 nmoles of 4-MU per minute per mg of protein. The “reduction of promoter activity” value in data set [3] (switched from SD medium into HGM for 24 hrs) is reported as 40%.

B2: TEF: Y. lipolytica translation elongation factor EF1-α promoter, SEQ ID NO:166 (nucleic acid, listed as Yarrowia lipolytica)
DNA: GACCGGGTTGGCGGCGTATTTGTGTCCCAAAAAACAGCCCCAATTGCCCCAATTGACCCCAAATTGACCCAGTAGCGGGCCCAACCCCGGCGAGAGCCCCCTTCACCCCACATATCAAACCTCCCCCGGTTCCCACACTTGCCGTTAAGGGCGTAGGGTACTGCAGTCTGGAATCTACGCTTGTTCAGACTTTGTACTAGTTTCTTTGTCTGGCCATCCGGGTAACCCATGCCGGACGCAAAATAGACTACTGAAAATTTTTTTGCTTTGTGGTTGGGACTTTAGCCAAGGGTATAAAAGACCACCGTCCCCGAATTACCTTTCCTCTTCTTTTCTCTCTCTCCTTGTCAACTCACACCCGAAATCGTTAAGCATTTCCTTCTGAGTATAAGAATCATTCAAAGGATCCACTAGTTCTAGAGCGGCCGCTTAAACC
modifications: misc_feature: Promoter TEF
On to B2, for which the “promoter activity by histochemical staining” value in data set [1] (ATCC #76982 strains, MM, FIG. 5B) was “active”. The “Activity “Rank”” value in data set [2] is given as 1. Moreover, the GUS activity in data set [3] (strain Y2034, 24 hr, HGM) was 0.942 nmoles of 4-MU per minute per mg of protein; in data set [3] (strain Y2034, 48 hr, SD), 0.401 nmoles of 4-MU per minute per mg of protein; in data set [3] (strain Y2034, 120 hr HGM) it was 0.466 nmoles of 4-MU per minute per mg of protein. In addition, in data set [3] (switched from SD medium into HGM and grown for 24 hrs), the “increase of promoter activity” value amounted to 2.3 fold.
